Assay results: publication PMC6450523, “Substrate-analogue complex structure of Mycobacterium tuberculosis decaprenyl diphosphate synthase” (Acta Crystallographica. Section F, Structural Biology …, 2019)

Molecular target: the molecule itself
Assay: crystal structure; sitting-drop vapour diffusion at 25°C, 0.1 M HEPES pH 7.5, 10% glycerol, 25% PEG 400, 7% PEG 3000; crystals soaked with 1 mM ISPP and 1 mM GSPP for 6 h; 1.55 Å, space group P212121, one dimer in the asymmetric unit

B1: Decaprenyl diphosphate synthase from Mycobacterium tuberculosis (enzyme)
chain: MARDARKRTSSNFPQLPPAPDDYPTFPDTSTWPVVFPELPAAPYGGPCRPPQHTSKAAAPRIPADRLPNHVAIVMDGNGRWATQRGLARTEGHKMGEAVVIDIACGAIELGIKWLSLYAFSTENWKRSPEEVRFLMGFNRDVVRRRRDTLKKLGVRIRWVGSRPRLWRSVINELAVAEEMTKSNDVITINYCVNYGGRTEITEATREIAREVAAGRLNPERITESTIARHLQRPDIPDVDLFLRTSGEQRSSNFMLWQAAYAEYIFQDKLWPDYDRRDLWAACEEYASRTRRFGSA
notes: also called MtDPPS; Rv2361c
stoichiometry N: 2
